Laboratory results: patent publication US20140031294A1

Biological target: Concanavalin A (UniProt P02866)
Experiment: ConA sepharose affinity chromatography, load and eluate by RP-HPLC

Substance	Analysis 1 Eluate Recovery % (w/w) (ConA binding material)	Analysis 2 Eluate Recovery % (w/w) (ConA binding material)
recombinant transferrin (S32A, S415A, T613A) (from UniProt P02787 20-698) (ligand)	0.15 % (w/w)	
recombinant transferrin (S32C, S415A, T613A) (from UniProt P02787 20-698) (ligand)	0.25 % (w/w)	0.26 % (w/w)
